Measurements reported in article PMC2230226.
Values belong to the substance of their own block, whether it stands above or below them.

Tests used:
[1] = biological target: bovine factor Xa (bovine)
[2] = biological target: bovine pancreatic trypsin (bovine)
[3] = biological target: human plasma kallikrein (human) (UniProt P03952)
human plasmin (human) [4] = biological target: human plasmin (human)
human α-FXIIa (human) = human α-FXIIa (human) (UniProt P00748)
[5] = biological target: recombinant human FVIIa (NovoSeven) (human) (UniProt P08709)
recombinant human FVIIa (NovoSeven) (human), sequence (P08709 61-212, chain 1 of 2): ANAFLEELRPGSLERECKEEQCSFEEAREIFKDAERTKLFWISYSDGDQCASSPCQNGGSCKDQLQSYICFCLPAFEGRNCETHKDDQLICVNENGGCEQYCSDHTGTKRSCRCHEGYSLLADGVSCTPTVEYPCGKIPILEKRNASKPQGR
recombinant human FVIIa (NovoSeven) (human), sequence (P08709 213-466, chain 2 of 2): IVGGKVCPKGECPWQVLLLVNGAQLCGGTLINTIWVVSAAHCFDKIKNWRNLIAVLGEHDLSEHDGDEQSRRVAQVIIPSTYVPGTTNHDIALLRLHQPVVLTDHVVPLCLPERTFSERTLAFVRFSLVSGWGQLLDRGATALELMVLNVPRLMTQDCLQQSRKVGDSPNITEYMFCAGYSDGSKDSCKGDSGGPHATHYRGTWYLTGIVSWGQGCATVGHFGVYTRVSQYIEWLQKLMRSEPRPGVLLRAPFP

recombinant sc-tPA = recombinant sc-tPA (UniProt P00750)
recombinant sc-tPA, sequence (P00750 36-562): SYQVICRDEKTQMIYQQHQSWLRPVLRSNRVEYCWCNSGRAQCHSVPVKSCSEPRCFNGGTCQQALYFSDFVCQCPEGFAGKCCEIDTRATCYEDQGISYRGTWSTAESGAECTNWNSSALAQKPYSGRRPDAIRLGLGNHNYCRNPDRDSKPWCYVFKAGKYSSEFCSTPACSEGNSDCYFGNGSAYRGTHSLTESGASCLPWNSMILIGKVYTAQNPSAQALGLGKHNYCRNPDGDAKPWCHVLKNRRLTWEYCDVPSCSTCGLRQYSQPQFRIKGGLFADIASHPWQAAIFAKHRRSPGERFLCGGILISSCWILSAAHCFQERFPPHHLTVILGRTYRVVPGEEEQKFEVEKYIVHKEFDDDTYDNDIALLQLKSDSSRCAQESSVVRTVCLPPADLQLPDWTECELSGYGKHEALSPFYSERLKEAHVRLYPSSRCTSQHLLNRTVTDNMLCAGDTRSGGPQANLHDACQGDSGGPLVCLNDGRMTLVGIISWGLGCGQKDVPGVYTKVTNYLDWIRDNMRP

recombinant tryptase = recombinant tryptase (UniProt Q15661)
recombinant tryptase, sequence (Q15661 19-275): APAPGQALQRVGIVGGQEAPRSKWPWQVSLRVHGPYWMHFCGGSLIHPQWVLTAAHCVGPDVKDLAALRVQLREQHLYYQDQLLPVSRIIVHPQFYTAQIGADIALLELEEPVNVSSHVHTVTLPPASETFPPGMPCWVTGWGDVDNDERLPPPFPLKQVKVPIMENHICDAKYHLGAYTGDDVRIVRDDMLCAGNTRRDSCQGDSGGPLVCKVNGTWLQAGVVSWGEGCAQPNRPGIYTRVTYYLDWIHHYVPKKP

urokinase (uPA) = urokinase (uPA) (UniProt P00749)
[6] = biological target: bovine α-thrombin (bovine); assay: enzyme inhibition (amidolytic activity, chromogenic substrate); Ki of thrombin inhibition; tight-binding kinetics assumed, apparent (native inhibitor); the conditions of the Ki determination itself are not told
[7] = biological target: bovine pancreatic trypsin (bovine); assay: native gel or EMSA; 500 ng human thrombin or bovine trypsin in 25 mM Tris-HCl pH 8.0, 190 mM glycine, mixed with increasing boophilin, 15 min at room temperature; 10% Tris-glycine polyacrylamide gel at 4°C, silver-stained
human α-thrombin (human) = assay: as above
[8] = biological target: bovine pancreatic trypsin (bovine); assay: enzyme inhibition kinetics (progress curves, chromogenic substrate); slow-binding inhibition; second-order rate constant k2/Ki from kobs; 0.2 mM Chromozym TH (trypsin, 6.25 ng/ml) or Chromozym PL (plasmin, 12.5 µg/ml); boophilin 0.1-0.65 µM (trypsin) or 0.04-0.4 µM (plasmin); 45 min at 37°C
human plasmin (human) [9] = assay: as above
Target sequence in this assay (P00747 20-580, chain 1 of 2): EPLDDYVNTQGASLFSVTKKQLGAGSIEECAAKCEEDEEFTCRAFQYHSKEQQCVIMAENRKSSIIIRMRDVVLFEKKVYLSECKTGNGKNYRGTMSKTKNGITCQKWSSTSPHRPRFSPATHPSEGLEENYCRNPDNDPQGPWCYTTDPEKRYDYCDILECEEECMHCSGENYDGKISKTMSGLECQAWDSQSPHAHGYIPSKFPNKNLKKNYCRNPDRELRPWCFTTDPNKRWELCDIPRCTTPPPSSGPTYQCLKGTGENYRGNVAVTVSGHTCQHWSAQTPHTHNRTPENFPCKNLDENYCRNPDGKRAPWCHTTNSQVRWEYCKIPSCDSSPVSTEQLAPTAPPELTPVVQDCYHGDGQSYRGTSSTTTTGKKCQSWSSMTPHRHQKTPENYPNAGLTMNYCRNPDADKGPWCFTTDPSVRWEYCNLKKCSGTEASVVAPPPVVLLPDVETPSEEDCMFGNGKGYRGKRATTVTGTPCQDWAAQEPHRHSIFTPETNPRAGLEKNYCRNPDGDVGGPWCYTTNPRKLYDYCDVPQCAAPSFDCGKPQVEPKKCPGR
Target sequence in this assay (P00747 581-810, chain 2 of 2): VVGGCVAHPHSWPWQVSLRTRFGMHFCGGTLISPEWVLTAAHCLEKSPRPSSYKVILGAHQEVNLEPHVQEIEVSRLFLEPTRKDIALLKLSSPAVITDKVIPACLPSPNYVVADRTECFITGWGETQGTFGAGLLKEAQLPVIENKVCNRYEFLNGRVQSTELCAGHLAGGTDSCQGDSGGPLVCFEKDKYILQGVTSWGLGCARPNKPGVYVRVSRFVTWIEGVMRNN

human plasma kallikrein (human), sequence (P03952 20-390, chain 1 of 2): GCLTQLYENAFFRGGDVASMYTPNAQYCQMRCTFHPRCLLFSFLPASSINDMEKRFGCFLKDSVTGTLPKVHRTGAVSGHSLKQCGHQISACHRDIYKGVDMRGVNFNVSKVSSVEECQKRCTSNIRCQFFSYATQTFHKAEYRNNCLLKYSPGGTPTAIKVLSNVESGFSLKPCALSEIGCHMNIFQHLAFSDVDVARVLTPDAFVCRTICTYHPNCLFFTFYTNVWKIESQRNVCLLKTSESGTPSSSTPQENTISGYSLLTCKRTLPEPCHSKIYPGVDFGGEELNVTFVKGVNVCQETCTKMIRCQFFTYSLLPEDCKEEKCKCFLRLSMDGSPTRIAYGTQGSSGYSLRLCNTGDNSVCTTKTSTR
human plasma kallikrein (human), sequence (P03952 391-638, chain 2 of 2): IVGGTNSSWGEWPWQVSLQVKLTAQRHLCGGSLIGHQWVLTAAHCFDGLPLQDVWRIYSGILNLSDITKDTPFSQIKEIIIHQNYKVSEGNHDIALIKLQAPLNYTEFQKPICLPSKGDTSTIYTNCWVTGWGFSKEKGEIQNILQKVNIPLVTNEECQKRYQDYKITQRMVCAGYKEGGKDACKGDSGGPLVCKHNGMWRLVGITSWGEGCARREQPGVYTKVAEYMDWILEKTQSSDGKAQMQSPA
human α-FXIIa (human), sequence (P00748 20-372, chain 1 of 2): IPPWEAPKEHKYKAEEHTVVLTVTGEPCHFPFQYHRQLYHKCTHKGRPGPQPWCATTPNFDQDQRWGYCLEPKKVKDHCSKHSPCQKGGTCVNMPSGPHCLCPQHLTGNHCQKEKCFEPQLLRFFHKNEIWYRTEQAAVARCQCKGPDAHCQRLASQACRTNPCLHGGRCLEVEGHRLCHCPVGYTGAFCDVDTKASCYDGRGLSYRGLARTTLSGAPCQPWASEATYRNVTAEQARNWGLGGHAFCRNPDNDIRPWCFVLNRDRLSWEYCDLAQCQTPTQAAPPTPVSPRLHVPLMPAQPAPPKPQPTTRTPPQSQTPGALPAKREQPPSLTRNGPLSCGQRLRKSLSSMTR
human α-FXIIa (human), sequence (P00748 373-615, chain 2 of 2): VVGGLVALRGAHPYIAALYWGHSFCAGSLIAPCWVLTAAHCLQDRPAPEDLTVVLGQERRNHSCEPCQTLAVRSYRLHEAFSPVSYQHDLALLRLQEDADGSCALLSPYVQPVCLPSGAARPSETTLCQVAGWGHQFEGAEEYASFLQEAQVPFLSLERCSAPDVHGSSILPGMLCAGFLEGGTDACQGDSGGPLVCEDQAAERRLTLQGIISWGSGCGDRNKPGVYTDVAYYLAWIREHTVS

Inhibition of amidolytic activity (%), recombinant inhibitor (C-terminal domain) 15.2 µM, substrate Chromozym X [1]: 0%
Inhibition of amidolytic activity (%), recombinant inhibitor (C-terminal domain) 15.2 µM, substrate Pefachrome tPA [2]: 80%
Inhibition of amidolytic activity (%), recombinant inhibitor (C-terminal domain) 15.2 µM, substrate Chromozym PK [3]: 0%
Inhibition of amidolytic activity (%), recombinant inhibitor (C-terminal domain) 15.2 µM, substrate Chromozym PL (human plasmin (human) [4]): 25%
Inhibition of amidolytic activity (%), recombinant inhibitor (C-terminal domain) 15.2 µM, substrate Pefachrome FXIIa (human α-FXIIa (human)): 0%
Inhibition of amidolytic activity (%), recombinant inhibitor (C-terminal domain) 15.2 µM, substrate Chromozym tPA [5]: 0%
Inhibition of amidolytic activity (%), recombinant inhibitor (C-terminal domain) 15.2 µM, substrate Pefachrome tPA (recombinant sc-tPA): 2%
Inhibition of amidolytic activity (%), recombinant inhibitor (C-terminal domain) 15.2 µM, substrate Chromozym TH (recombinant tryptase): 8%
Inhibition of amidolytic activity (%), recombinant inhibitor (C-terminal domain) 15.2 µM, substrate Pefachrome uPA (urokinase (uPA)): 17%
Substance: isolated C-terminal boophilin domain (domain or fragment)

Inhibition of amidolytic activity (%), native inhibitor 3.53 µM, substrate Chromozym X [1]: 10%
Inhibition of amidolytic activity (%), native inhibitor 3.53 µM, substrate Pefachrome tPA [2]: 97%
Inhibition of amidolytic activity (%), native inhibitor 3.53 µM, substrate Chromozym PK [3]: 66%
Inhibition of amidolytic activity (%), native inhibitor 3.53 µM, substrate Chromozym PL (human plasmin (human) [4]): 87%
Inhibition of amidolytic activity (%), native inhibitor 3.53 µM, substrate Pefachrome uPA (urokinase (uPA)): 16%
Ki [6]: 1.8 nM
stoichiometry N [7]: 1
stoichiometry N (human α-thrombin (human)): 1
second order rate constant k2/Ki [8]: 308000 M⁻¹ s⁻¹
Substance: native boophilin (natural protein)

Substance: recombinant boophilin (full-length mature protein, variant H2) (from UniProt Q8WPI2 16-142) (natural protein)
Inhibition of amidolytic activity (%), recombinant inhibitor (full-length) 2.36 µM, substrate Pefachrome tPA [2]: 98%
Inhibition of amidolytic activity (%), recombinant inhibitor (full-length) 2.36 µM, substrate Chromozym PL (human plasmin (human) [4]): 95%
Ki [6]: 3.4 nM
second order rate constant k2/Ki [8]: 384000 M⁻¹ s⁻¹
second order rate constant k2/Ki (human plasmin (human) [9]): 259000 M⁻¹ s⁻¹
